This is an account of results in patent publication US20190177366.

In one data set the test system is T1, Pep2-8-ctrl.
T1 sequence: TVATSAEEYLLWV

The subject of a further data set is T2, Pep2-8.
T2 sequence: TVFTSWEEYLDWV

Another data set deals with T3, Compound 29.
T3 sequence: SGCFIPWNLQRIGLLC

The subject of another data set is T4, Compound 26.
T4 sequence: SGCFIPWNLQRIGLLC

Another data set has as its system T5, Compound 118.
T5 sequence: WNLVXIGLTR

Take PCSK9-R167A:R215A:R218A: the “FXIa cleavage of the P′ helix (immunoblot)” value in the data set on Pep2-8-ctrl was “The control peptide did not inhibit cleavage and gave similar results as the buffer control”; in the data set with Pep2-8, “both reagents largely prevented cleavage of the P′ helix by FXIa”; in the data set on Compound 29, “both groove binding peptides accelerated the cleavage reaction, leading to almost complete cleavage of the P′ helix”; in the data set on Compound 26, “both groove binding peptides accelerated the cleavage reaction, leading to almost complete cleavage of the P′ helix”; in the data set on Compound 118, “resulted in a higher degree of P′ helix cleavage by FXIa as compared to the peptide Compound 112”.
